In assay [1] the target is Cse4-NCP (Cse4 containing nucleosome core particle) (budding yeast) (UniProt P36012). In words: cross-linking.
Assay [2] has as its target Spc24/25 complex (budding yeast, UniProt Q04477;P40014). In words: cross-linking.
For assay [3], the target named is Ame1/Okp1 complex (budding yeast, UniProt P38313;P53298). The assay is described as follows: pull-down.
Assay [4] concerns the target T1, Dsn1/Nsl1 (budding yeast, UniProt P40568;Q12143).
T1 sequence 1: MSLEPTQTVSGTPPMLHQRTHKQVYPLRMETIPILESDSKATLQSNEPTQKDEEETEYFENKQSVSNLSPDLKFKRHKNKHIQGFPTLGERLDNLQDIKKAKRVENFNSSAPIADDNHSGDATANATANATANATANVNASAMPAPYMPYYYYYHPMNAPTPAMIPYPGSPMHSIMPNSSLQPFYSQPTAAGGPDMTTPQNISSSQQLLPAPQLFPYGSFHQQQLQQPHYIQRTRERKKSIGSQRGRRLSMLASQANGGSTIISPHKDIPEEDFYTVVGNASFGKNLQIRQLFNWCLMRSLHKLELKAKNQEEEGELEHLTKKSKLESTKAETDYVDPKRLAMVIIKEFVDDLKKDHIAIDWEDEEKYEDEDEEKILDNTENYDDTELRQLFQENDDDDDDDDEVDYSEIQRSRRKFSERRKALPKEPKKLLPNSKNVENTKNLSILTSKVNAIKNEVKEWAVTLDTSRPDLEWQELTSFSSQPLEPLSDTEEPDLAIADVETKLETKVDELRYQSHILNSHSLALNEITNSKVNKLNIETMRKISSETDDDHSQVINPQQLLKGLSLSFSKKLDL
T1 sequence 2: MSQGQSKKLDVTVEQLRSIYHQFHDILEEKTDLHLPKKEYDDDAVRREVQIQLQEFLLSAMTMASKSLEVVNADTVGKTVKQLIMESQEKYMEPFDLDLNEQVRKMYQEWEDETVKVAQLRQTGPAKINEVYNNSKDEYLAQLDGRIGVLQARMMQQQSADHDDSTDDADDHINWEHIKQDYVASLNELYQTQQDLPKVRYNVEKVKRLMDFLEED
The assay is described as follows: SEC. On the technique in general: SEC sorts molecules by how far they enter the pores of the column.

Assay [5] has as its target Mif2* (Mif2-6xHis-6xFlag wild type, dephosphorylated and in vitro phosphorylated by Cdc5) (budding yeast, UniProt P35201 1-549). In words: pull-down.

Sequence of Ame1/Okp1 complex (P38313 whole entry, chain 1 of 2): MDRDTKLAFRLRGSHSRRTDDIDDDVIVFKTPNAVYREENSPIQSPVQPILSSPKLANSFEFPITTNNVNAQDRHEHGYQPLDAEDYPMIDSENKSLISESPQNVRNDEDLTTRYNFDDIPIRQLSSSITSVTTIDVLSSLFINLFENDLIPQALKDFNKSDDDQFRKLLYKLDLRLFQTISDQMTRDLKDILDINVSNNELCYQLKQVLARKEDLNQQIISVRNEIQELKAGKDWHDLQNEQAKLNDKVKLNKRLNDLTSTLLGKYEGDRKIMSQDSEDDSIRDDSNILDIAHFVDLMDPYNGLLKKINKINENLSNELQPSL
Sequence of Ame1/Okp1 complex (P53298 whole entry, chain 2 of 2): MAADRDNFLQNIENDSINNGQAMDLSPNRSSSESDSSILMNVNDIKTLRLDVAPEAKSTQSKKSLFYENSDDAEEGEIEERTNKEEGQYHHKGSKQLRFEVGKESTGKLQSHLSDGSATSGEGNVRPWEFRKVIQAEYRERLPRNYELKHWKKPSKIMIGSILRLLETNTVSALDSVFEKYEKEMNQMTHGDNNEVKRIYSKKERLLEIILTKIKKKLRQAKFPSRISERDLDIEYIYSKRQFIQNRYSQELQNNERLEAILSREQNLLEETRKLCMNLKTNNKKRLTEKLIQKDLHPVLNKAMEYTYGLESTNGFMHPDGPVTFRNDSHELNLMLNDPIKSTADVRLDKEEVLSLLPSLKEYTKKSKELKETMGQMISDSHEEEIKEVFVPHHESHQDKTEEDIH
Sequence of Spc24/25 complex (Q04477 whole entry, chain 1 of 2): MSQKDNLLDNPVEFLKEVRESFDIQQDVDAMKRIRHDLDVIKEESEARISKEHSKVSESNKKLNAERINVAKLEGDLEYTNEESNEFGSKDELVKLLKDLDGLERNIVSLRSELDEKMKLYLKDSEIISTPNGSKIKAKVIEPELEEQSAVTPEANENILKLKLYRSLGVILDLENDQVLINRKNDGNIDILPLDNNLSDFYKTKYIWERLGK
Sequence of Spc24/25 complex (P40014 whole entry, chain 2 of 2): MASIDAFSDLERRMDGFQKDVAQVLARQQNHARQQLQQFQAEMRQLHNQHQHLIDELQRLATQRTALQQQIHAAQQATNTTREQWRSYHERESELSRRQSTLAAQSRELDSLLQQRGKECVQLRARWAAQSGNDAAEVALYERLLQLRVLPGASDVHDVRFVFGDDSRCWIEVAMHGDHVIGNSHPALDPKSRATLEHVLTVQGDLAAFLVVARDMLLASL

With “Mif2* (Mif2-6xHis-6xFlag wild type, dephosphorylated and in vitro phosphorylated by Cdc5) (from UniProt P35201 1-549) (natural protein)”, the fold decrease of KD with MTW1c(Dsn1^S240D,S250D) against wild-type MTW1c in assay [1] amounted to 20 fold.
Molecule NKDPNEVRSFLQDLSQVLARKSQGN [Cnn1^60-84 peptide] returned a dissociation constant Kd in assay [2] of 2600 nM.

B1: Mif2^Δ200-230 mutant, in vitro phosphorylated by Cdc5 (natural protein)
chain: MDYMKLGLKSRKTGIDVKQDIPKDEYSMENIDDFFKDDETSLISMRRKSRRKSSLFLPSTLNGDTKNVLPPFLQSYKSQDDEVVQSPSGKGDGSRRSSLLSHQSNFLSPANDFEPIEEEPEQEENDIRGNDFATPITQKLSKPTYKRKYSTRYSLDTSESPSVRLTPDRITNKNVYSDVPDLVADEDDDDRVNTSLNTSDSGSDSASDSDGDNTYQEVEEEAEVNTNDNEDDYIRRQASDVVRTDSIIDRNGLRKSTRVKVAPLQYWRNEKIVYKRKSNKPVLDIDKIVTYDESEDEEEILAAQRRKKQKKKPTPTRPYNYVPTGRPRGRPKKDPNAKENLIPEDPNEDIIERIESGGIENGEWLKHGILEANVKISDTKEETKDEIIAFAPNLSQTEQVKDTKDENFALEIMFDKHKEYFASGILKLPAISGQKKLSNSFRTYITFHVIQGIVEVTVCKNKFLSVKGSTFQIPAFNEYAIANRGNDEAKMFFVQVTVSEDANDDNDKELDSTFDTFG
As for B1, the binding result in assay [3] is “binds”.

B2: Mtw1/Nnf1 (complex)
chain 1: MSAPTMRSTSILTEHLGYPPISLVDDIINAVNEIMYKCTAAMEKYLLSKSKIGEEDYGEEIKSGVAKLESLLENSVDKNFDKLELYVLRNVLRIPEEYLDANVFRLENQKDLVIVDENELKKSEEKLREKVNDVELAFKKNEMLLKRVTKVKRLLFTIRGFKQKLNELLKCKDDVQLQKILESLKPIDDTMTLLTDSLRKLYVDSESTSSTEEVEALLQRLKTNGKQNNKDFRTRYIDIRTNNVLRKLGLLGDKEDEKQSAKPDARTQAGDIVSIDIEEPQLDLLDDVL
chain 2: MVNSHGIRYIRLKQVFNRALDQSISKLQSWDKVSSCFPQYVNSKQGAINVANCQRQLTEFWTELCQREFKEIMEERNVEQKLNELDELILEAKERYTDRDQDEVNKGPAIDELSSKELVECHLYSQRMHAIHEIDERLAKVNEMNDQLAQELKDLETQVEVEKNEIGKMYDEYLGSHTDQPANVLLVQSLNDMVLELKENY
As to B2, the binding result in assay [4], in assay [3] and in assay [5] was “binds” each time.

Broadly, the Kd is the constant that tells how readily two partners part at equilibrium. Low values mean tighter binding, high ones weaker binding.

The values are drawn from publication doi:10.1101/2022.03.31.486303 (bioRxiv, 2022).
